In article doi:10.1101/2022.08.08.503162:

Target: His6-tagged luminal domain (ectodomain) of human SR-B1, amino acids 33-444 (human) (UniProt Q8WTV0)
Assay: MST

Kd: 2060 nM
Substance: full-length APOA1-Milano expressed in 293F cells (protein A-APOA1-Milano construct) (from UniProt P02647 19-267) (natural protein)
